Results on one molecule are retold here after paper PMC9753469.

By Kd is commonly meant the constant that tells how readily two partners part at equilibrium.

The experiment concerns the target MBP-KRAB (ZNF93 KRAB E35R), P35789. The experiment can be described thus: SPR. The note with it: chain shown with the change; MBP-KRAB immobilized on the chip; KAP1 RBCC as mobile phase.

Sequence of MBP-KRAB (ZNF93 KRAB E35R), P35789 (P35789 2-71 E35R): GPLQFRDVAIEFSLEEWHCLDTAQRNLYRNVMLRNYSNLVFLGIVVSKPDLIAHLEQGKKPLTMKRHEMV

B1: m11; m9 KAP1:R311E; ZNF93 KRAB:E35R (protein)
chain: MAASAAAASAAAASAASGSPGPGEGSAGGEKRSTAPSAAASASASAAASSPAGGGAEALELLEHCGVCRERLRPEREPRLLPCLHSACSACLGPAAPAAANSSGDGGAAGDGTVVDCPVCKQQCFSKDIVENYFMRDSGSKAATDAQDANQCCTSCEDNAPATSYCVECSEPLCETCVEAHQRVKYTKDHTVRSTGPAKSRDGERTVYCNVHKHEPLVLFCESCDTLTCRDCQLNAHKDHQYQFLEDAVRNQRKLLASLVKRLGDKHATLQKSTKEVRSSIRQVSDVQKRVQVDVKMAILQIMKELNKRGEVLVNDAQKVTEGQQERLERQHWTMTKIQKHQEHILRFASWALESDNNTALLLSKKLIYFQLHRALKMIVDPVEPHGEMKFQWDLNAWTKSAEAFGKIVAERPGTNSTGPAPMAPPRAPGPLSKQGSGSSQPMEVQEGYGFGSGDDPYSSAEPHVSGVKRSRSGEGEVSGLMRKVPRVSLERLDLDLTADSQPPVFKVFPGSTTEDYNLIVIERGAAAAATGQPGTAPAGTPGAPPLAGMAIVKEEETEAAIGAPPTATEGPETKPVLMALAEGPGAEGPRLASPSGSTSSGLEVVAPEGTSAPGGGPGTLDDSATICRVCQKPGDLVMCNQCEFCFHLDCHLPALQDVPGEEWSCSLCHVLPDLKEEDGSLSLDGADSTGVVAKLSPANQRKCERVLLALFCHEPCRPLHQLATDSTFSLDQPGGTLDLTLIRARLQEKLSPPYSSPQEFAQDVGRMFKQFNKLTEDKADVQSIIGLQRFFETRMNEAFGDTKFSAVLVEPPPMSLPGAGLSSQELSGGPGDGP
For the molecule B1, the equilibrium dissociation constant (Kd) stood at 71.8 nM.
